Reference: the supplement of paper PMC10567573

B1: PLK2 (parent)
chain: MELLRTITYQPAASTKMCEQALGK
B2: DLC1 (parent)
chain: KRSWEEHVTHWMGQPFNSDDRNTA

Variants of: B1
Assay: protein stability index of a GFP-peptide fusion (GPS, HEK-293T) (PSI 1-6); higher = more stable
Settings: c terminus: a fixed tail appended
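Note: lentivirally expressed fusions sorted by FACS into six bins by GFP to DsRed ratio, PSI derived from sequencing read proportions per bin multiplied by bin number.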

Protein stability index, by site and new letter:
K24: Y 3.96

Variants of: B2
Assay: as above
Settings: c terminus: a fixed tail appended

Protein stability index, by site and new letter:
K1: T 3.35, S 3.46, D 4.26, F 3.16, C 2.54, A 3.57, M 2.73, G 3.21, V 2.95, Y 2.81, I 2.54, W 2.49, E 4.15, L 3.03, N 3.63, P 3.6, H 2.69, R 2.99, Q 3.76
V8: L 3.31, K 4.26, A 4.13, W 3.39, E 4.24, S 3.88, T 3.84, Q 3.86, P 4.21, R 4.22, Y 3.99, C 3.98, D 4.42, N 4.13, G 4.02, H 4.04, M 3.66, I 2.81, F 3.34
W4: Y 4.08, N 4.95, R 4.62, I 4.41, Q 4.71, F 4.09, V 4.36, T 4.76, M 3.95, E 5.05, S 4.32, K 4.48, A 4.41, D 5.21, C 4.2, P 4.45, H 4.44, L 3.45, G 4.38
E5: F 3.16, A 2.55, Y 3.04, M 3.13, S 3.41, G 3.07, R 2.64, I 1.92, H 3.56, W 3.37, Q 3.1, C 2.17, D 3.94, T 2.4, V 2.65, L 2.47, N 3.5, K 2.58, P 3.95
E6: I 2.44, M 2.66, S 3.24, T 3.15, H 3.36, A 2.72, G 3.48, V 2.53, F 2.27, Q 3.27, C 2.87, Y 2.31, K 3.32, W 2.67, P 3.46, L 2.58, R 3.46, N 3.98, D 3.06
S3: N 3.81, A 3.44, K 3.47, V 3.94, F 3.18, T 2.13, D 4.33, P 3.6, W 3, H 3.72, Q 3.54, R 3.34, E 4.41, M 3.35, C 2.24, G 3.44, L 3.37, I 3.78, Y 3.01
H7: P 4.2, A 3.54, Y 2.29, W 2.82, N 4.35, G 4.29, K 3.44, M 2.84, V 3.18, I 3.75, S 3.71, R 3.08, E 3.1, T 3.21, F 2.84, D 3.68, Q 2.75, L 2.64, C 3.33
R2: E 3.61, K 2.6, L 3.28, C 2.52, I 2.71, N 3.67, Q 3.11, Y 3.25, M 2.79, D 4.37, P 3.37, T 3.7, H 3.08, S 3.79, F 3.62, G 3.61, V 3.26, W 2.98, A 3.11
T9: D 4.32, F 2.11, C 2.6, L 2.53, A 2.97, K 3.59, G 3.14, Q 3.6, E 3.84, H 3.46, P 3.54, N 3.75, I 2.62, M 3.48
